Results as given in US20210324066A1.

Tests used:
[1] = target: LIGHT standard recombinant antigen (UniProt O43557); assay: Simoa sandwich immunoassay, Enzo ALX-804-841-C100 capture with ProSci RF16062 detection, free LIGHT in diluent; signal inhibited by DcR3 as competitor
[2] = target: LIGHT standard recombinant antigen (UniProt O43557); assay: Simoa sandwich immunoassay, Enzo ALX-804-841-C100 capture with ProSci RF16062 detection, free LIGHT in diluent; uninhibited signal in the inhibition formula
[3] = target: native free LIGHT (TNFSF14) in serum and plasma samples (UniProt O43557); assay: antibody competition: serum and plasma samples incubated with 50 µg/mL free capture antibody for 35 minutes before the Simoa free LIGHT assay; treated against untreated sample concentration

Enzo ALX-804-841-C100 (antibody)
MFI [1]: 361 MFI
MFI [2]: 9940 MFI
% Recovery [3]: 0%
